Measured values reported in paper PMC5736350.

Biological target: CLASPIN (UniProt Q9HAW4)
Test: anti-myc co-immunoprecipitation
Conditions: reference: wild-type RAD9-mH; sites T313

binding against the reference: stronger
Substance: RAD9 (from UniProt Q99638) RAD9-T313A-mH
